Assay results as given in patent US20210238276A1 (INTEGRAL MOLECULAR, published 2021).
Substitutions are numbered along the chain they refer to.

What was measured:
Assay in all cases: flow cytometry, alanine-scan library in HEK-293T, with cytochalasin B
[1] = biological target: T1, hsGLUT4 R416A (human, UniProt P14672 1-509)
T1 sequence: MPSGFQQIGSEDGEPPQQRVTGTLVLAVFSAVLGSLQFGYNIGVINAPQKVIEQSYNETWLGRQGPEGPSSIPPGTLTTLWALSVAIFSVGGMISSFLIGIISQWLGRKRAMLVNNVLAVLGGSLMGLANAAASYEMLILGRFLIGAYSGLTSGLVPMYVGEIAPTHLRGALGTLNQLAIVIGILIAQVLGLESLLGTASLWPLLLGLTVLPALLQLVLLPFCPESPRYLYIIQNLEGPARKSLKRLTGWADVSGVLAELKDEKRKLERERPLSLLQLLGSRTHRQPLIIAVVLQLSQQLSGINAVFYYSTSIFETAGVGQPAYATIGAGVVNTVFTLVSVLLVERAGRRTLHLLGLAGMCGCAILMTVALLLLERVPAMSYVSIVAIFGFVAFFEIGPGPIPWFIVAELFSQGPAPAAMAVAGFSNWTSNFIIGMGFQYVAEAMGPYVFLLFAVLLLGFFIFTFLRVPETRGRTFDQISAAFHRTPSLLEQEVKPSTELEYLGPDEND
Outline: (§1)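 HEK-293T cells expressing individual GLUT4 alanine mutants were stained 48 h post-transfection with anti-GLUT4 scFv MAbs (2 μg/ml), then biotinylated secondary and streptavidin-PerCP, and read by high-throughput flow cytometry. Where used, cytochalasin B (10 uM final) was given for 30 min before and during primary antibody staining.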

[2] = biological target: T2, hsGLUT4 G446A (human, UniProt P14672 1-509)
T2 sequence: T1 sequence with A416R, G446A
Outline: as §1

[3] = biological target: T3, hsGLUT4 L61A (human, UniProt P14672 1-509)
T3 sequence: T1 sequence with L61A, A416R
Outline: as §1

[4] = biological target: T4, hsGLUT4 G348A (human, UniProt P14672 1-509)
T4 sequence: T1 sequence with G348A, A416R
Outline: as §1

% of binding to wild type GLUT4 [1]: 70%
% of binding to wild type GLUT4 [2]: 43%
% of binding to wild type GLUT4 [3]: 69%
% of binding to wild type GLUT4 [4]: 79%
B1: AB102 (Fc fusion)
scFv: ALTQPSSVSANLGGTVKITCSGGGSYGYGWYQQKSPGSAPVTVIYSNDQRPSDIPSRFSGSKSGSTATLTITGVRAEDEAIYYCGSTDSDYVGIFGAGTTLTVLGQSSRSSGGGGSSGGGGSAVTLDESGGGLQTPGGTLSLVCKASGFDFSSYATIWVRQAPGKGLEWVAGISGTGTGSSTGYAPAVKGRATISRDNGQSTVRLQLNNLRAEDTGSYFCAKSTGYGDSWIYPDSIDAWGHGTEVIVSS
notes: also called MAb AB102; not shown: Fc fragment of human IgG1, cloned in frame with the scFv
